Test [1] has as its target Tar4Q L378C, E. coli aspartate chemoreceptor Tar, all-glutaminyl form with carboxyl-terminal pentapeptide, … (E. coli, UniProt P07017 1-553, L378C, biotinylated at L378C). The test is described as follows: SPR. (In SPR one partner is held on a chip, and binding of the other changes the refractive index at the surface.)
Test [2] addresses Tar4E L378C, E. coli aspartate chemoreceptor Tar, all-glutamyl form with carboxyl-terminal pentapeptide, … (E. coli, UniProt P07017 1-553, L378C, biotinylated at L378C). The test is described as follows: SPR.
Test [3] deals with Tar4QΔpp-6H L378C, E. coli Tar lacking the carboxyl-terminal pentapeptide, all-glutaminyl form, homodimer in … (E. coli, UniProt P07017 1-553, L378C, biotinylated at L378C). Briefly: SPR.
The target in test [4] is Tar4EΔpp-6H L378C, E. coli Tar lacking the carboxyl-terminal pentapeptide, all-glutamyl form, homodimer in … (E. coli, UniProt P07017 1-553, L378C, biotinylated at L378C). Briefly: SPR.
For test [5], the system named is Tar4E and Tar4Q with or without pentapeptide. Briefly: CheBC binding to pentapeptide-bearing and pentapeptide-lacking Tar (biolayer interferometry). More on the design: species or system E. coli. The method, then:
(§1) We determined the kinetics of association and dissociation of methylesterase/deamidase CheB in its low- and high-activity form with the E. coli aspartate chemoreceptor Tar using biolayer interferometry ([22], [23]) and isolated receptor homodimers in Nanodiscs ([24], [25]). Apparent rate constants of association and dissociation were derived from global fits of time courses for binding and release (see Fig. S1 in the supplemental material). Equilibrium dissociation constants were calculated from those apparent rate constants.
E. coli CheB and Salmonella CheB D56C/C207S/C309S and D56C/S164A/C207S/C309S were purified as described previously ([11]). CheBC (amino acids [aa] 153 to 349) was purified using the procedure of West et al. ([40]), except that Bio-Gel P-60, was not used. CheB D56C/C207S/C309S and CheB D56C/S164A/C207S/C309S were modified to create a disulfide-linked phosphoryl group on D56C following the procedure described in reference but using a 10-fold molar excess of DTNB [Ellman’s reagent, 5,5′-disulfanediylbis(2-nitrobenzoic acid)] rather than 90-fold and a 50-fold molar excess Na3SPO3 rather than 1,000-fold. The extent of modification was 59% for the former and 60% for the latter determined by reversed phase chromatography essentially as described previously ([26]) and confirmed by Nano LC-Nanospray QTQF mass spectroscopy. Membrane scaffold protein MSP1D1(-) ([41]) was purified as described previously ([25]). Tar4E L378C, Tar4Q L378C, Tar4EΔpp-6H L378C, and Tar4QΔpp-6H L378C were purified, incorporated into Nanodiscs at approximately one receptor dimer per disc, and biotinylated at L378C as described previously ([23], [42]). […] These activities were confirmed for representative samples used in our analyses. […]
(§2) Kinetics of CheB association and dissociation with Nanodisc-embedded Tar biotinylated at L378C were determined using biolayer interferometry ([22], [23]) as measured by a BLItz instrument (ForteBio, Menlo Park, CA, USA) and described in reference. […]

Test [6] deals with Tar4Q (chemoreceptor Tar, all-glutaminyl, pentapeptide-bearing). The test is described as follows: CheB binding to pentapeptide-bearing Tar4Q in Nanodiscs (biolayer interferometry). More on the design: species or system E. coli. The note with it: Tar 4Q, pentapeptide yes, BLI; for dwell time (1/koff) / KA (equilibrium association constant) / kon (apparent association rate constant): pH 7.5, 2% BSA (plus 2 mM DTT for CheB and CheBc); for dwell time (1/koff): calculated from mean koff; for kon (apparent association rate constant): mean ± SD of at least three independent experiments. The procedure: as §1
(§3) E. coli CheB and Salmonella CheB D56C/C207S/C309S and D56C/S164A/C207S/C309S were purified as described previously ([11]). CheBC (amino acids [aa] 153 to 349) was purified using the procedure of West et al. ([40]), except that Bio-Gel P-60, was not used. CheB D56C/C207S/C309S and CheB D56C/S164A/C207S/C309S were modified to create a disulfide-linked phosphoryl group on D56C following the procedure described in reference but using a 10-fold molar excess of DTNB [Ellman’s reagent, 5,5′-disulfanediylbis(2-nitrobenzoic acid)] rather than 90-fold and a 50-fold molar excess Na3SPO3 rather than 1,000-fold. The extent of modification was 59% for the former and 60% for the latter determined by reversed phase chromatography essentially as described previously ([26]) and confirmed by Nano LC-Nanospray QTQF mass spectroscopy. Membrane scaffold protein MSP1D1(-) ([41]) was purified as described previously ([25]). Tar4E L378C, Tar4Q L378C, Tar4EΔpp-6H L378C, and Tar4QΔpp-6H L378C were purified, incorporated into Nanodiscs at approximately one receptor dimer per disc, and biotinylated at L378C as described previously ([23], [42]). […] These activities were confirmed for representative samples used in our analyses. Receptor-containing Nanodiscs were dialyzed into 50 mM Tris-HCl (pH 7.5), 0.5 mM EDTA, 10% (wt/vol) glycerol, and 100 mM NaCl. Prior to a binding experiment, the solution was changed using a spin desalting column to 50 mM Tris-HCl, 10% (wt/vol) glycerol, 5 mM MgCl2, and 50 mM KCl (pH 7.5).
(§4) Kinetics of CheB association and dissociation with Nanodisc-embedded Tar biotinylated at L378C were determined using biolayer interferometry ([22], [23]) as measured by a BLItz instrument (ForteBio, Menlo Park, CA, USA) and described in reference. Representative time course experiments are shown in Fig. S1 in the supplemental material. Measurements for CheB-P* and CheB-P*-I were in 50 mM Tris-HCl (pH 7.5), 10% (wt/vol) glycerol, 5 mM MgCl2, 50 mM KCl, and 2% (wt/vol) bovine serum albumin (BSA). Measurements for CheB and CheBc were in the same solution plus 2 mM dithiothreitol (DTT).
(§5) Using BLItz software, response curves were fit globally to a 1:1 binding model to yield apparent association rate constants (kon) and dissociation rate constants (koff). For analysis of complex patterns of binding, in which more than one binding reaction appeared to be contributing, for instance one that appeared saturable and another nonspecific, nonsaturable, the data were exported and fit globally to nonlinear exponential functions using OriginPro 2017. The best fits to the data were obtained using the following functions. R=R0 + Req[a(e^−kd1 t) + b(e^−kd2 t)] was used to globally fit dissociation time courses, with R being the response (in nanometers), a + b = 1, with a and b being the portion of the signal (in nanometers) for fast and slow phases, respectively, kd1 and kd2 being the respective dissociation rate constants, and Req being the response at equilibrium. Association data were fit using apparent dissociation rate constants kd1 and kd2, relevant CheB concentrations (C) and the equation R=R0 + Req[a(1 − e^−(ka1 C+kd1)t) + b(1 − e^−(ka2 C+kd2)t)]

For test [7], the system named is Tar4EΔpp (chemoreceptor Tar, all-glutamyl, lacking NWETF). The test is described as follows: CheB binding to Tar4EΔpp (pentapeptide-lacking) in Nanodiscs (biolayer interferometry). Also noted: species or system E. coli. The note with it: Tar 4E, pentapeptide no, BLI, pH 7.5, 2% BSA (plus 2 mM DTT for CheB and CheBc); for dwell time (1/koff): calculated from mean koff; for dwell time (1/koff) / KA (equilibrium association constant): propagated SD; for KA (equilibrium association constant): calculated from mean kon and koff; for kon (apparent association rate constant): mean ± SD of at least three independent experiments. The procedure:
as §1, §3, §4, §5

For a further test, the target named is TarQEQE. The note with it: pulldown assay, pentapeptide at carboxyl terminus of TarQEQE in native membrane, unphosphorylated CheB; ref [21]; read-out: equilibrium dissociation constant [KD]; cited from earlier work.
For another test, the system named is Tar4EΔpp and Tar4QΔpp. Briefly: CheB binding to pentapeptide-lacking Tar, 4E and 4Q (biolayer interferometry). Also noted: species or system E. coli. The method, then: as §1
E. coli CheB and Salmonella CheB D56C/C207S/C309S and D56C/S164A/C207S/C309S were purified as described previously ([11]). CheBC (amino acids [aa] 153 to 349) was purified using the procedure of West et al. ([40]), except that Bio-Gel P-60, was not used. […] The extent of modification was 59% for the former and 60% for the latter determined by reversed phase chromatography essentially as described previously ([26]) and confirmed by Nano LC-Nanospray QTQF mass spectroscopy. […]
as §2
A general note: In BLI a coated tip is dipped into the sample, and binding shifts an interference pattern.

Where [8] appears, read: calculated from mean kon and koff, propagated SD.

B1: CheBC, catalytic domain of E. coli CheB lacking the regulatory domain and linker (domain or fragment)
chain: LSSEKLIAIGASTGGTEAIRHVLQPLPLSSPALLITQHMPPGFTRSFADRLNKLCQIGVKEAEDGERVLPGHAYIAPGDRHMELSRSGANYQIKIHDGPAVNRHRPSVDVLFHSVAKQAGRNAVGVILTGMGNDGAAGMLAMRQAGAWTLAQNEASCVVFGMPREAINMGGVCEVVDLSQVSQQMLAKISAGQAIRI
B1: the Ka in test [1] was determined as 700 M⁻¹; in [2], 1700 M⁻¹; in [3], 800 M⁻¹; in [4], 1500 M⁻¹. The “binding to chemoreceptors versus CheB-P*” value in test [5] (compared with activated phosphorylation mimic CheB-P*) is listed as “bound much more weakly to chemoreceptors than the activated phosphorylation mimic CheB-P*”. Moreover, the “preference for product form Tar4E versus substrate form Tar4Q” value in test [5] (ratio of KD) is “approximately twofold”. Also, the “effect of presence or absence of pentapeptide on binding” value in test [5] (with versus without NWETF) was “no significant difference in binding in the presence or absence of pentapeptide”. The entries for the “dwell time (1/koff)” value in test [6] (propagated SD) and in test [7] were 2.1 ± 0.4 s and 2.3 ± 0.2 s, respectively. Moreover, the “KA (equilibrium association constant)” value is listed as 0.7 ± 0.2 10^3 M^-1 in test [6] (setting [8]) and 1.5 ± 0.3 10^3 M^-1 in test [7]. Also, the “kon (apparent association rate constant)” value in test [6] amounted to 350 ± 60 M⁻¹ s⁻¹; in [7], 670 ± 140 M⁻¹ s⁻¹.

B2: methylesterase/deamidase CheB from E. coli, low-activity, unphosphorylated form (enzyme, UniProt P07330 1-349, looked up)
chain: MSKIRVLSVDDSALMRQIMTEIINSHSDMEMVATAPDPLVARDLIKKFNPDVLTLDVEMPRMDGLDFLEKLMRLRPMPVVMVSSLTGKGSEVTLRALELGAIDFVTKPQLGIREGMLAYNEMIAEKVRTAAKASLAAHKPLSAPTTLKAGPLLSSEKLIAIGASTGGTEAIRHVLQPLPLSSPALLITQHMPPGFTRSFADRLNKLCQIGVKEAEDGERVLPGHAYIAPGDRHMELSRSGANYQIKIHDGPAVNRHRPSVDVLFHSVAKQAGRNAVGVILTGMGNDGAAGMLAMRQAGAWTLAQNEASCVVFGMPREAINMGGVCEVVDLSQVSQQMLAKISAGQAIRI
notes: CheB methylesterase/deamidase of E. coli, unphosphorylated, from plasmid pCW/cheB; measured with 2 mM DTT in the buffer; also called low-activity CheB; unmodified CheB; source: E. coli K-12 RP3098 with pCW/cheB, purified
As to B2, the Kd (in general, the free concentration of one partner at which half of the binding sites on the other are occupied at equilibrium, for simple one-to-one binding) at TarQEQE is around 150 µM; in test [6] (50 mM Tris-HCl pH 7.5, 10% glycerol, 5 mM MgCl2, 50 mM KCl, 2% BSA (plus 2 mM DTT for CheB and CheBc), calculated from mean kon and koff, propagated SD, read-out: KD (equilibrium dissociation constant)), 160 ± 30 µM. Besides, the Ka in [1] worked out at 6300 M⁻¹; in [2], 4400 M⁻¹; in test [3], 1700 M⁻¹; in [4], 1200 M⁻¹. In the test on Tar4EΔpp and Tar4QΔpp (Tar4QΔpp versus Tar4EΔpp), the “preference for substrate (4Q) versus product (4E) form” value is listed as “not significantly different”. For the same molecule, the “fold weaker than binding to pentapeptide / pentapeptide-bearing receptor” value in the test with Tar4EΔpp and Tar4QΔpp (ratio of KD, Tar4Δpp versus pentapeptide-bearing) was “approximately fourfold”. Besides, the “dwell time (1/koff)” value is 2.2 ± 0.1 s in [6] (propagated SD) and 1.6 ± 0.2 s in test [7]. The “KA (equilibrium association constant)” value in test [6] (setting [8]) is 6.3 ± 1 10^3 M^-1; in test [7], 1.2 ± 0.1 10^3 M^-1. In addition, the “kon (apparent association rate constant)” value was 2,900 ± 480 M^-1s^-1 in [6] and 750 ± 8 M⁻¹ s⁻¹ in test [7].

The record behind these values is PMC8609364, “A Selective Tether Recruits Activated Response Regulator CheB to Its Chemoreceptor Substrate” (mBio, 2021).
